The supplement of paper PMC9112550, “Optimization of the antimicrobial peptide Bac7 by deep mutational scanning” (BMC Biology, 2022)

What follows are sequences tested on Escherichia coli TOP10 (assay: shrunken log2 fold change of peptide-encoding DNA abundance (4.5 h post-induction vs induction); higher = less antimicrobial activity (less host growth inhibition)). Conditions: time post-induction: 4.5 h; library: site-saturation at positions 5, 18, 19, 20.
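Note: peptides expressed intracellularly from a pBAD plasmid library in pooled LB shake-flask culture, induced with 0.3% L-arabinose, DNA abundance read by NGS, three biological replicates, DESeq2 with apeglm shrinkage.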

Sequence	shrunken log2 fold change
RRIRHRPPRLPRPRPRPWHIPRP	-0.864
RRIRHRPPRLPRPRPRPWHQPRP	-0.0658
RRIRHRPPRLPRPRPRPWIEPRP	0.0254
RRIRHRPPRLPRPRPRPWKSPRP	-0.0679
RRIRHRPPRLPRPRPRPWQRPRP	-0.1
RRIRHRPPRLPRPRPRPWQTPRP	0.266
RRIRHRPPRLPRPRPRPWSGPRP	-0.17
RRIRHRPPRLPRPRPRPWVQPRP	0.0187
RRIRHRPPRLPRPRPRPWVSPRP	-0.683
RRIRHRPPRLPRPRPRPWWPPRP	-0.0995
RRIRHRPPRLPRPRPRPWWVPRP	-0.136
RRIRHRPPRLPRPRPRPYAKPRP	-0.0134
RRIRHRPPRLPRPRPRPYDDPRP	-0.00822
RRIRHRPPRLPRPRPRPYEEPRP	-0.431
RRIRHRPPRLPRPRPRPYEWPRP	-0.0335
RRIRHRPPRLPRPRPRPYFEPRP	-0.76
RRIRHRPPRLPRPRPRPYGAPRP	-0.48
RRIRHRPPRLPRPRPRPYHKPRP	-0.412
RRIRHRPPRLPRPRPRPYIRPRP	-0.0464
RRIRHRPPRLPRPRPRPYKYPRP	-0.128
RRIRHRPPRLPRPRPRPYMKPRP	-0.541
RRIRHRPPRLPRPRPRPYNDPRP	-0.0648

Sequence	shrunken log2 fold change
RRIRHRPPRLPRPRPRPYNSPRP	0.0224
RRIRHRPPRLPRPRPRPYPLPRP	-0.641
RRIRHRPPRLPRPRPRPYQAPRP	-0.00987
RRIRHRPPRLPRPRPRPYQNPRP	0.0439
RRIRHRPPRLPRPRPRPYQPPRP	-0.216
RRIRHRPPRLPRPRPRPYQTPRP	-0.112
RRIRHRPPRLPRPRPRPYTHPRP	-1.46
RRIRHRPPRLPRPRPRPYVTPRP	-0.182
RRIRHRPPRLPRPRPRPYWLPRP	-0.85
RRIRHRPPRLPRPRPRPYYEPRP	0.0317
RRIRHRPPRLPRPRPRPYYPPRP	-0.228
RRIRIRPPRLPRPRPRPAAGPRP	0.0506
RRIRIRPPRLPRPRPRPAARPRP	0.278
RRIRIRPPRLPRPRPRPACFPRP	0.199
RRIRIRPPRLPRPRPRPADRPRP	-0.123
RRIRIRPPRLPRPRPRPAEKPRP	-0.213
RRIRIRPPRLPRPRPRPAFCPRP	0.167
RRIRIRPPRLPRPRPRPAFRPRP	2.17
RRIRIRPPRLPRPRPRPAHVPRP	-0.0796
RRIRIRPPRLPRPRPRPAKVPRP	-0.224
RRIRIRPPRLPRPRPRPALAPRP	0.202
RRIRIRPPRLPRPRPRPAMKPRP	-0.0563

Sequence	shrunken log2 fold change
RRIRIRPPRLPRPRPRPANDPRP	-0.135
RRIRIRPPRLPRPRPRPANNPRP	-0.449
RRIRIRPPRLPRPRPRPANSPRP	-0.204
RRIRIRPPRLPRPRPRPAPEPRP	1.9
RRIRIRPPRLPRPRPRPAPHPRP	-0.0179
RRIRIRPPRLPRPRPRPARGPRP	0.624
RRIRIRPPRLPRPRPRPARMPRP	0.223
RRIRIRPPRLPRPRPRPARWPRP	0.412
RRIRIRPPRLPRPRPRPATHPRP	-0.165
RRIRIRPPRLPRPRPRPATQPRP	0.129
RRIRIRPPRLPRPRPRPAWMPRP	0.0797
RRIRIRPPRLPRPRPRPAYEPRP	-0.277
RRIRIRPPRLPRPRPRPAYVPRP	-0.354
RRIRIRPPRLPRPRPRPCAPPRP	-0.506
RRIRIRPPRLPRPRPRPCCEPRP	-0.731
RRIRIRPPRLPRPRPRPCCPPRP	-0.168
RRIRIRPPRLPRPRPRPCDWPRP	0.00175
RRIRIRPPRLPRPRPRPCECPRP	0.0112
RRIRIRPPRLPRPRPRPCFQPRP	-0.391
RRIRIRPPRLPRPRPRPCGIPRP	-0.222
RRIRIRPPRLPRPRPRPCHAPRP	-0.618
RRIRIRPPRLPRPRPRPCHMPRP	-0.188

Sequence	shrunken log2 fold change
RRIRIRPPRLPRPRPRPCKGPRP	0.00355
RRIRIRPPRLPRPRPRPCKQPRP	-0.0506
RRIRIRPPRLPRPRPRPCLLPRP	-0.495
RRIRIRPPRLPRPRPRPCLQPRP	-0.0932
RRIRIRPPRLPRPRPRPCMQPRP	-0.0295
RRIRIRPPRLPRPRPRPCMSPRP	-0.347
RRIRIRPPRLPRPRPRPCPHPRP	-0.143
RRIRIRPPRLPRPRPRPCPPPRP	-0.328
RRIRIRPPRLPRPRPRPCQFPRP	-0.395
RRIRIRPPRLPRPRPRPCQYPRP	-1.06
RRIRIRPPRLPRPRPRPCRGPRP	0.0305
RRIRIRPPRLPRPRPRPCRHPRP	-0.159
RRIRIRPPRLPRPRPRPCRMPRP	-0.186
RRIRIRPPRLPRPRPRPCYQPRP	-0.44
RRIRIRPPRLPRPRPRPDACPRP	0.183
RRIRIRPPRLPRPRPRPDADPRP	0.194
RRIRIRPPRLPRPRPRPDAGPRP	0.158
RRIRIRPPRLPRPRPRPDAIPRP	0.0309
RRIRIRPPRLPRPRPRPDCGPRP	0.0585
RRIRIRPPRLPRPRPRPDCIPRP	0.0653
RRIRIRPPRLPRPRPRPDCVPRP	-0.0493
RRIRIRPPRLPRPRPRPDDPPRP	-0.0328

Sequence	shrunken log2 fold change
RRIRIRPPRLPRPRPRPDDTPRP	-0.131
RRIRIRPPRLPRPRPRPDFCPRP	-0.42
RRIRIRPPRLPRPRPRPDFQPRP	-0.125
RRIRIRPPRLPRPRPRPDGPPRP	-0.0369
RRIRIRPPRLPRPRPRPDGWPRP	-0.279
RRIRIRPPRLPRPRPRPDHEPRP	0.147
RRIRIRPPRLPRPRPRPDHNPRP	-0.919
RRIRIRPPRLPRPRPRPDIPPRP	-0.112
RRIRIRPPRLPRPRPRPDIYPRP	-0.357
RRIRIRPPRLPRPRPRPDMIPRP	-0.0965
RRIRIRPPRLPRPRPRPDPVPRP	-0.0546
RRIRIRPPRLPRPRPRPDQHPRP	-0.202
RRIRIRPPRLPRPRPRPDQNPRP	0.0467
RRIRIRPPRLPRPRPRPDSLPRP	-0.163
RRIRIRPPRLPRPRPRPDSWPRP	-0.268
RRIRIRPPRLPRPRPRPDTYPRP	-0.347
RRIRIRPPRLPRPRPRPDVGPRP	-0.284
RRIRIRPPRLPRPRPRPDWSPRP	-0.161
RRIRIRPPRLPRPRPRPDYFPRP	0.197
RRIRIRPPRLPRPRPRPDYHPRP	-1.9
RRIRIRPPRLPRPRPRPEALPRP	0.00934
